What all share (assay): initial rate of epoxide hydrolysis, chiral HPLC
Format in all cases: biochemical, Agromyces mediolanus
Holding throughout (conditions): phosphate buffer 0.2 M, pH 8.0, 30 °C (general activity assay), enantiopure substrate

Data set [1] concerns T1, c1ccc(COC[C@@H]2CO2)cc1.
T1 construct: synthetic gene, triple variant, C-terminal His6 (3' end of gene) in pET28a NcoI/XhoI, E. coli BL21(DE3), Ni-NTA purified, about 43 kDa
The source says: (§1) initial rate of epoxide hydrolysis, chiral HPLC on vEH-Am

Data set [2] concerns T2, c1ccc([C@H]2CO2)cc1.
T2 construct: synthetic gene, triple variant, C-terminal His6 (3' end of gene) in pET28a NcoI/XhoI, E. coli BL21(DE3), Ni-NTA purified, about 43 kDa
Source text: as §1

Data set [3] concerns T3, c1ccc([C@@H]2CO2)cc1.
T3 construct: synthetic gene, triple variant, C-terminal His6 (3' end of gene) in pET28a NcoI/XhoI, E. coli BL21(DE3), Ni-NTA purified, about 43 kDa
Source text: as §1

The subject of data set [4] is T4, c1ccc(COC[C@H]2CO2)cc1.
T4 construct: synthetic gene, triple variant, C-terminal His6 (3' end of gene) in pET28a NcoI/XhoI, E. coli BL21(DE3), Ni-NTA purified, about 43 kDa
Source text: as §1

One substance from PMC6627055, “Enantioselective Hydrolysis of Styrene Oxide and Benzyl Glycidyl Ether by a Variant of Epoxide Hydrolase from Agromyces mediolanus” (Marine Drugs, 2019) can be followed below.

As usually defined, the Km is the substrate concentration at which the rate is half of its maximum. For “vEH-Am (Agromyces mediolanus; N240D/S207V/W182F)”, the Km in data set [1] was found to be 36.5 mM; in data set [2] it was 0.9 mM; in data set [3] it was 5.2 mM; in data set [4], 9.3 mM.
